Data: US20260152557A1 (Adimab, published 2026)

Assays:
[1] = biological target: T1, cynomolgus CD3εδ-Fc heterodimer (Cy CD3ε Fc / CD3δ Fc-HIS) (cynomolgus, UniProt Q95LI8 22-100); assay: BLI (Octet), CHO-produced IgG on AHC sensor, CD3εδ-Fc 100 nM in solution, pH 7.4
T1 construct: range 22-100; Produced in HEK 293 cells; also called Cy CD3εδ Fc heterodimer; not shown: Fc-HIS part of CD3δ Fc-HIS
Protocol: (§1) Anti-CD3 antibodies Antibody Nos. 1-13 were produced as human IgG1 antibodies in yeast or CHO cells. IgGs produced in yeast were aglycosylated, CHO) produced IgGs had standard CH2 glycosylation. Binding affinity to human or cynomolgus CD3εδ-Fc at pH 7.4 and pH 6.0 was measured via biolayer interferometry (BLI) using the ForteBio OCTET® HTX system and analyzed using the ForteBio software.
(§2) Kinetics were analyzed using the 1:1 binding model.

[2] = biological target: T2, human CD3εδ-Fc heterodimer (Hu CD3ε Fc / CD3δ Fc-HIS) (human, UniProt P04234 22-100); assay: BLI (Octet), yeast-produced IgG on AHC sensor, CD3εδ-Fc 100 nM in solution, pH 6.0
T2 construct: range 22-100; Produced in HEK 293 cells with a heterologous signal peptide; heterodimer purified by Ni Sepharose and Mono Q; also called Hu CD3εδ Fc heterodimer; CD3εδ Fc-HIS heterodimer; not shown: Fc-HIS part of CD3δ Fc-HIS
Protocol: as §1, §2

[3] = biological target: T1, cynomolgus CD3εδ-Fc heterodimer (Cy …); assay: as above
Protocol: as §1, §2

[4] = biological target: T3, human CD3 on CD3+ Jurkat cells (human, UniProt P07766 23-207); assay: flow cytometry, yeast-produced IgG 100 nM on CD3+ Jurkat cells, pH 6.0
T3 construct: whole, on cells; The whole CD3 complex stands on the cells; also called Human CD3 Jurkat; human CD3+ Jurkat cells
Protocol: (§3) Anti-CD3 antibodies Antibody Nos. 1-13 were produced as aglycosylated IgGs comprising a IgG1 Fc region in yeast cells. Binding to human or cynomolgus CD3-expressing cells (human CD3+ Jurkat cells or cynomolgus HSC-F cells, respectively) at pH 7.4 and pH 6.0 were measured by fluorescence-activated single cell sorting (FACS). Normalized cell binding (NCB) values were calculated based on median fluorescence intensity (MFI) values, CD3 negative Jurkat cells were used as a negative control.
(§4) Cell binding assay, CD3+ and CD3− human Jurkat cells (ATCC) and cynomolgus HSC-F cells (NIH) were thawed and washed with cold PBSF buffer, pH 7.4 (PBS+0.1% BSA, pH 7.4). About 200,000 cells were aliquoted per well of a 96-well plate (FACS Assay Plate VWR BD 353263) and pelleted by centrifugation (5 minutes at 500×g). The cells were washed with either PBSF pH 7.4 or PBSF pH 6.0 (PBS+0.1% BSA, pH 6.0), and then resuspended in 100 μl in either PBSF pH 7.4 or PBSF pH 6.0 with IgG antibody (100 nM) produced in yeast as described above. The mixture (cells+antibody) was incubated for 20 minutes on ice, then washed twice with either PBSF pH 7.4 or PBSF pH 6.0. Cells were resuspended in 50 μl of propidium iodide (Roche; 1:500 dilution) and anti-human IgG-RPE (Southern Biotech; 1:100 dilution) prepared in either PBSF pH 7.4 or PBSF pH 6.0, then incubated for 20 minutes on ice in the dark before cells were washed twice with either PBSF pH 7.4 or PBSF pH 6.0. Binding was analyzed on FACS Canto 11.

[5] = biological target: T1, cynomolgus CD3εδ-Fc heterodimer (Cy …); assay: BLI (Octet), CHO-produced IgG on AHC sensor, CD3εδ-Fc 100 nM in solution, pH 6.0
Protocol: as §1, §2

[6] = biological target: T2, human CD3εδ-Fc heterodimer (Hu CD3ε Fc …); assay: BLI (Octet), yeast-produced IgG on AHC sensor, CD3εδ-Fc 100 nM in solution, pH 7.4
Protocol: as §1, §2

[7] = biological target: T1, cynomolgus CD3εδ-Fc heterodimer (Cy …); assay: as above
Protocol: as §1, §2

[8] = biological target: T4, cynomolgus CD3 on HSC-F cells (cynomolgus, UniProt Q95LI5 22-198); assay: flow cytometry, yeast-produced IgG 100 nM on HSC-F cells, pH 6.0
T4 construct: whole, on cells; also called Cyno HSC-F; cynomolgus HSC-F cells
Protocol: as §3, §4

[9] = biological target: T3, human CD3 on CD3+ Jurkat cells; assay: flow cytometry, yeast-produced IgG 100 nM on CD3+ Jurkat cells, pH 7.4
Protocol: as §3, §4

[10] = biological target: T4, cynomolgus CD3 on HSC-F cells; assay: flow cytometry, yeast-produced IgG 100 nM on HSC-F cells, pH 7.4
Protocol: as §3, §4

[11] = biological target: T1, cynomolgus CD3εδ-Fc heterodimer (Cy …); assay: SPR (Biacore 8K), CHO-produced Fab, monovalent, pH 7.4
Protocol: (§5) Anti-CD3 antibodies (Antibody Nos. 1-13) were produced as human IgG1 antibodies in yeast or Chinese hamster ovary (CHO) cells, and Fab fragments were generated from the IgG1 antibodies by papain digestion and purified IgGs produced in yeast were aglycosylated. CHO produced IgGs had standard CH2 glycosylation. […] Monovalent binding affinity to human or cynomolgus CD3εδ-Fc at pH 7.4 and pH 6.0 were measured via surface plasmon resonance (SPR) using the BIACORE® 8K (Cytiva, previously GE Healthcare Life Sciences) system and analyzed using BIACORE® Evaluation Software.
(§6) BIACORE® KD measurements (surface plasmon resonance; SPR). BIACORE® affinity measurements were performed generally as previously described. Briefly, human CD3εδ-Fc heterodimer produced as described above was immobilized to a NiNTA sensor chip in a BIACORE® 8K (Cytiva, previously GE Healthcare Life Sciences) to a response level of ˜500 RUs. […] The sensor chip was doubly regenerated between cycles using 0.35 M EDTA and 0.1 M NaOH. The resulting data were double reference subtracted and fit to a 1:1 binding model using BIACORE® Evaluation Software.

[12] = biological target: T2, human CD3εδ-Fc heterodimer (Hu CD3ε Fc …); assay: BLI (Octet), CD3εδ-Fc on AHC sensor, CHO-derived Fab 100 nM in solution, pH 6.0
[13] = biological target: T2, human CD3εδ-Fc heterodimer (Hu CD3ε Fc …); assay: SPR (Biacore 8K), yeast-produced Fab, monovalent, pH 6.0
Protocol: as §5, §6

[14] = biological target: T2, human CD3εδ-Fc heterodimer (Hu CD3ε Fc …); assay: SPR (Biacore 8K), CHO-produced Fab, monovalent, pH 6.0
Protocol: as §5, §6

[15] = biological target: T1, cynomolgus CD3εδ-Fc heterodimer (Cy …); assay: as above
Protocol: as §5, §6

[16] = biological target: T2, human CD3εδ-Fc heterodimer (Hu CD3ε Fc …); assay: BLI (Octet), CD3εδ-Fc on AHC sensor, CHO-derived Fab 100 nM in solution, pH 7.4
[17] = biological target: T2, human CD3εδ-Fc heterodimer (Hu CD3ε Fc …); assay: SPR (Biacore 8K), CHO-produced Fab, monovalent, pH 7.4
Protocol: as §5, §6

[18] = biological target: T2, human CD3εδ-Fc heterodimer (Hu CD3ε Fc …); assay: SPR (Biacore 8K), yeast-produced Fab, monovalent, pH 7.4
Protocol: as §5, §6

T2 sequence (chain, as listed by the source mutant, form in doubt, chain 1 of 2): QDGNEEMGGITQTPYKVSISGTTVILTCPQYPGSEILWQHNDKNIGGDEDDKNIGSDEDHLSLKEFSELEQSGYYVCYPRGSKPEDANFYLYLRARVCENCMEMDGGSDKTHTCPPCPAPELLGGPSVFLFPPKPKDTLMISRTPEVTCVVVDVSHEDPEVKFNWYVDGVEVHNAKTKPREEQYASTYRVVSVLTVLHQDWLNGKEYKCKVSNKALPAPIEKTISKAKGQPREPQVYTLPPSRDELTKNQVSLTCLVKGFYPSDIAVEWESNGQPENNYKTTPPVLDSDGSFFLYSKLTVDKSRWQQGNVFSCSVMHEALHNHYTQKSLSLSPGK
T2 sequence (P04234 22-100, stated change not applied, form in doubt, chain 2 of 2): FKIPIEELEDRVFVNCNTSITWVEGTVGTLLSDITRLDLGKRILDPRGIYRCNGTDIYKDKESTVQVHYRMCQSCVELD
T1 sequence (chain, as listed by the source mutant, form in doubt, chain 1 of 2): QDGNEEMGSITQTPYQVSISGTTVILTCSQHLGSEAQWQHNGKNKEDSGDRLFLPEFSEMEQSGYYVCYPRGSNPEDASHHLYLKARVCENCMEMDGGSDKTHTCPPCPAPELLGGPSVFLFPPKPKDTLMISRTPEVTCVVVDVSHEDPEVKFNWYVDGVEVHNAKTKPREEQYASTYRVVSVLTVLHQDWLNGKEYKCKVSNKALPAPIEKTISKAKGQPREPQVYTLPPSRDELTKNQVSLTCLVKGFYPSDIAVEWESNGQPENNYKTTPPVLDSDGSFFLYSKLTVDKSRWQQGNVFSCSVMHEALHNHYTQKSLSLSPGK
T1 sequence (Q95LI8 22-100, stated change not applied, form in doubt, chain 2 of 2): as the sequence (P04234 22-100, stated change not applied, form in doubt, chain 2 of 2) above, with I5V, N15K, I20V, S32T, D33N, I34N, T64A, S74N counted along it
T4 sequence (Q95LI5 22-198): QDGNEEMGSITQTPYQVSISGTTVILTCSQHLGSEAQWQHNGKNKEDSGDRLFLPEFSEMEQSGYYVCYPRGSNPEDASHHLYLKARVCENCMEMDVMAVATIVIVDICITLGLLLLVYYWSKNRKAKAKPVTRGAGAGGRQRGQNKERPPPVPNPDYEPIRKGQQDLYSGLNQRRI
T3 sequence (P07766 23-207): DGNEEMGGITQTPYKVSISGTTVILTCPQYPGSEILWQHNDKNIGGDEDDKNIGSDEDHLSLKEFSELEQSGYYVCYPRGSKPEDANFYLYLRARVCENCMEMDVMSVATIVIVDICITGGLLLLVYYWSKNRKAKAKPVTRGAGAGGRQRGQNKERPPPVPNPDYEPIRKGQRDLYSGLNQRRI

Row | Binder | Kd [1] [nM] | Kd [2] [nM] | Kd [3] [nM] | NCB [4] | Kd [5] [nM] | Kd [6] [nM] | Kd [7] [nM] | NCB [8] | NCB [9] | NCB [10] | Kd [11] [nM] | Kd [12] [nM] | Kd [13] [nM] | Kd [14] [nM] | Kd [15] [nM] | Kd [16] [nM] | Kd [17] [nM] | Kd [18] [nM]
1 | ADI-26906 (Antibody No. 1), human IgG1 (antibody, V domains shown, Non-pH-dependent parent; Tested as human IgG1 (yeast-produced aglycosylated, or CHO-produced); also called Ab No. 1) VH: QVQLVQSGAEVKKPGASVKVSCKASGFNIKDYYMHWVRQAPGQRLEWMGWIDLENANTIYDAKFQGRVTITRDTSASTAYMELSSLRSEDTAVYYCARDAYGRYFYDVWGQGTLVTVSS VL: DIVMTQSPDSLAVSLGERATINCKSSQSLLNARTGKNYLAWYQQKPGQPPKLLIYWASTRESGVPDRFSGSGSGTDFTLTISSLQAEDVAVYYCKQSYSRRTFGGGTKVEIK | 5.87 | 2.84 | 2.5 | 203 | 5.89 | 4.35 | 4.1 | 560 | 149 | 167 |  |  |  |  |  |  |  | 
2 | Fab of ADI-48587 (Antibody No. 2) (Fab, V domains shown, Fab made by papain digestion of the human IgG1 (yeast- or CHO-produced); also called Antibody No. 2 Fab; ADI-48587 Fab) VH: QVQLVQSGAEVKKPGASVKVSCKASGFNIKDYYMHWVRQAPGQRLEWMGWIDLENANTIYDAKFQGRVTITRDTSASTAYMELSSLRSEDTAVYYCARDHYHRYFYDVWGQGTLVTVSS VL: DIVMTQSPDSLAVSLGERATINCKSSQSLLNARTGHNYLAWYQQKPGQPPKLLIYWASTRESGVPDRFSGSGSGTDFTLTISSLQAEDVAVYYCKQSHSHRTFGGGTKVEIK |  |  |  |  |  |  |  |  |  |  | 62.7 | 65.9 | 15.7 | 43.2 | 25.4 |  |  | 
3 | Fab of ADI-26906 (Antibody No. 1) (Fab, V domains shown, Fab made by papain digestion of the human IgG1 (yeast- or CHO-produced); also called Antibody No. 1 Fab; ADI-26906 Fab) VH: QVQLVQSGAEVKKPGASVKVSCKASGFNIKDYYMHWVRQAPGQRLEWMGWIDLENANTIYDAKFQGRVTITRDTSASTAYMELSSLRSEDTAVYYCARDAYGRYFYDVWGQGTLVTVSS VL: DIVMTQSPDSLAVSLGERATINCKSSQSLLNARTGKNYLAWYQQKPGQPPKLLIYWASTRESGVPDRFSGSGSGTDFTLTISSLQAEDVAVYYCKQSYSRRTFGGGTKVEIK |  |  |  |  |  |  |  |  |  |  | 1.09 | 5.81 | 1.9 | 1.25 | 1.9 | 6.03 | 1.09 | 2.4

Now from value to binder:

Row | Kd [1] [nM] | Kd [2] [nM] | Kd [3] [nM] | NCB [4] | Kd [5] [nM] | Kd [6] [nM] | Kd [7] [nM] | NCB [8] | NCB [9] | NCB [10] | Kd [11] [nM] | Kd [12] [nM] | Kd [13] [nM] | Kd [14] [nM] | Kd [15] [nM] | Kd [16] [nM] | Kd [17] [nM] | Kd [18] [nM] | Binder
4 |  |  |  |  |  |  |  |  |  |  |  | 24.4 | 10.5 | 10.9 | 11.3 | 142 |  |  | Fab of ADI-74965 (Antibody No. 3) (Fab, V domains shown, Fab made by papain digestion of the human IgG1 (yeast- or CHO-produced); also called Antibody No. 3 Fab; ADI-74965 Fab) VH: QVQLVQSGAEVKKPGASVKVSCKASGFNIKDYYMHWVRQAPGQRLEWMGWIDLENANTIYDAKFQGRVTITRDTSASTAYMELSSLRSEDTAVYYCARDAYHRYFYDVWGQGTLVTVSS VL: DIVMTQSPDSLAVSLGERATINCKSSQSLLNARTGHNYLAWYQQKPGQPPKLLIYWASTRESGVPDRFSGSGSGTDFTLTISSLQAEDVAVYYCKQSHSHRTFGGGTKVEIK
5 |  |  |  |  |  |  |  |  |  |  | 73.7 | 24.9 | 8.45 | 8.16 | 11.6 |  | 55.5 |  | Fab of ADI-74967 (Antibody No. 5) (Fab, V domains shown, Fab made by papain digestion of the human IgG1 (yeast- or CHO-produced); also called Antibody No. 5 Fab; ADI-74967 Fab) VH: QVQLVQSGAEVKKPGASVKVSCKASGFNIKDYYMHWVRQAPGQRLEWMGWIDLENANTIYDAKFQGRVTITRDTSASTAYMELSSLRSEDTAVYYCARDHYHRYFYDVWGQGTLVTVSS VL: GIVMTQSPDSLAVSLGERATINCKSSQSLLNARTGKNYLAWYQQKPGQPPKLLIYWASTRESGVPDRFSGSGSGTDFTLTISSLQAEDVAVYYCKQSHSHRTFGGGTKVEIK
6 |  |  |  |  |  |  |  |  |  |  | 46.5 | 14.8 | 6.07 | 6.37 | 6.18 | 69.3 | 47.5 |  | Fab of ADI-74968 (Antibody No. 6) (Fab, V domains shown, Fab made by papain digestion of the human IgG1 (yeast- or CHO-produced); also called Antibody No. 6 Fab; ADI-74968 Fab) VH: QVQLVQSGAEVKKPGASVKVSCKASGFNIKDYYMHWVRQAPGQRLEWMGWIDLENANTIYDAKFQGRVTITRDTSASTAYMELSSLRSEDTAVYYCARDAYHRYFYDVWGQGTLVTVSS VL: DIVMTQSPDSLAVSLGERATINCKSSQSLLNARTGHNYLAWYQQKPGQPPKLLIYWASTRESGVPDRFSGSGSGTDFTLTISSLQAEDVAVYYCKQSYSHRTFGGGTKVEIK
